Experimental data published in publication PMC12302650, “A tubulin-binding protein that preferentially binds to GDP-tubulin and promotes GTP exchange” (The Journal of Biological Chemistry, 2025).

Assays:
[1] = biological target: T1, GDP-tubulin (biotinylated α/β-tubulin heterodimer with GDP-bound β-tubulin) (UniProt Q71U36 1-451; Q9H4B7 1-451, biotinylated tubulin (chain and residues not stated) | biotinylated tubulin (chain and residues not stated)); assay: pull-down; supernatant depletion at equilibrium, same assay as for GTP-tubulin but with bead-bound GDP-tubulin; BuGZ construct (or mEGFP control) in solution; fit with Equation S2 for wild-type BuGZ; settings: both partners purified
[2] = biological target: GTP-tubulin (biotinylated α/β-tubulin heterodimer with GTP-bound β-tubulin) (UniProt Q71U36 1-451; Q9H4B7 1-451, biotinylated tubulin (chain and residues not stated) | biotinylated tubulin (chain and residues not stated)); assay: pull-down; supernatant depletion at equilibrium; varying concentrations of biotinylated GTP-tubulin on streptavidin-coated magnetic beads; BuGZ construct (or mEGFP control) in solution, BuGZ 1.19 μM; 4 °C; nocodazole present; depletion from the supernatant measured by immunoblotting; settings: both partners purified
[3] = biological target: taxol-stabilized microtubules (polymerized with a 1:10 mixture of biotin-labeled: unlabeled GTP-tubulin) (UniProt Q71U36 1-451; Q9H4B7 1-451, biotin on part of the tubulin (1:10 biotin-labeled: unlabeled; chain and residues not stated) | biotin on part of the tubulin (1:10 biotin-labeled: unlabeled; chain and residues not stated)); assay: pull-down; supernatant depletion at equilibrium; varying concentrations of biotin-containing taxol-stabilized microtubules on streptavidin-coated magnetic beads; BuGZ 1.19 μM; 4 °C; BuGZ left in the supernatant measured by quantitative immunoblotting; fit with a rectangular hyperbola (Equation S1); settings: both partners purified
[4] = biological target: T1, GDP-tubulin (biotinylated α/β-tubulin …); assay: cell-based or functional assay

| Kd [1] [nM] | Kd [2] [nM] | Kd [3] [nM] | GTP α-32P incorporation into 100 μM GDP-tubulin at equilibrium (1:1 GTP:GDP, 1.19 μM BuGZ, room temperature), increase relative to the control condition [4] [%] | Binder |
| --- | --- | --- | --- | --- |
| 1470 | 7140 |  |  | BuGZ-NTD (domain or fragment, BuGZ (ZNF207), Xenopus laevis, UniProt Q7ZXV8; the N-terminal 92 amino acids, which contain the two zinc fingers; The discussion says the zinc finger domain of BuGZ can be produced in bacteria; also called BuGZ's N-terminal domain; N-terminal 92 amino acids of BuGZ; source: purified) not shown |
| 45.3 | 477 | 9450 | 60.1 | Xenopus laevis BuGZ (Bub3-interacting and GLEBS motif-containing protein ZNF207), full-length wild type (natural protein, BuGZ (ZNF207), Xenopus laevis, UniProt Q7ZXV8; full-length wild type; also called wild-type BuGZ; full-length BuGZ; source: purified) not shown |
